Experiments:
[1] = biological target: Single4 monobody displayed on the yeast surface (human) (UniProt P02751); assay: flow cytometry on cells
[2] = biological target: PEbody with N-terminal 6x His tag (human) (UniProt P02751); assay: BLI

R-Phycoerythrin (complex)
fold R-PE binding capability against G9 [1]: 500 fold | Kd [2]: 5.7 nM

Reference: PMC5910193
